The test system of one data set is MCF7. Put plainly: percentage of EdU-negative (G0-arrested) nuclei per well, 72 h; higher = more G0 arrest. The following applies: reference: sequence is the full UniProt precursor, the tested protein was the secreted form or ectodomain.
Another data set deals with hTERT-HMEC. The description is as above. The following applies: reference: sequence is the full UniProt precursor, the tested protein was the secreted form or ectodomain.
The mark [1] stands for this setting: protein concentration 0.00975 µM.
The mark [2] stands for this setting: protein concentration 0.0975 µM.
The mark [3] stands for this setting: protein concentration 0.0225 µM.
Setting [4] is: protein concentration 0.0155 µM.
[5] abbreviates: protein concentration 0.0357143 µM.
Setting [6] is: protein concentration 0.357143 µM.
Where [7] appears, read: protein concentration 0.02525 µM.
Setting [8] is: protein concentration 0.2525 µM.

± gives the standard deviation of the averaged measurements.
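Further: secreted proteins added to cultured cells, EdU pulse at the end, nuclei found by Hoechst imaging, EdU status from nuclear versus surrounding ring intensity ratio, PBS as neutral control.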

As to “MVAATVAAAWLLLWAAACAQQEQDFYDFKAVNIRGKLVSLEKYRGSVSLVVNVASECGFTDQHYRALQQLQRDLGPHHFNVLAFPCNQFGQQEPDSNKEIESFARRTYSVSFPMFSKIAVTGTGAHPAFKYLAQTSGKEPTWNFWKYLVAPDGKVVGAWDPTVSVEEVRPQITALVRKLILLKREDL [Q96SL4]”, the “percentage of EdU-negative” value turned out to be 25.2 ± 2% with MCF7 (setting [1]), 27.1 ± 1.4% in the data set with MCF7 (setting [2]), 4.59 ± 0.052% in the data set on hTERT-HMEC (setting [1]) and 5.66 ± 0.28% in the data set on hTERT-HMEC (setting [2]).
As to “MKPAAREARLPPRSPGLRWALPLLLLLLRLGQILCAGGTPSPIPDPSVATVATGENGITQISSTAESFHKQNGTGTPQVETNTSEDGESSGANDSLRTPEQGSNGTDGASQKTPSSTGPSPVFDIKAVSISPTNVILTWKSNDTAASEYKYVVKHKMENEKTITVVHQPWCNITGLRPATSYVFSITPGIGNETWGDPRVIKVITEPIPVSDLRVALTGVRKAALSWSNGNGTASCRVLLESIGSHEELTQDSRLQVNISGLKPGVQYNINPYLLQSNKTKGDPLGTEGGLDASNTERSRAGSPTAPVHDESLVGPVDPSSGQQSRDTEVLLVGLEPGTRYNATVYSQAANGTEGQPQAIEFRTNAIQVFDVTAVNISATSLTLIWKVSDNESSSNYTYKIHVAGETDSSNLNVSEPRAVIPGLRSSTFYNITVCPVLGDIEGTPGFLQVHTPPVPVSDFRVTVVSTTEIGLAWSSHDAESFQMHITQEGAGNSRVEITTNQSIIIGGLFPGTKYCFEIVPKGPNGTEGASRTVCNRTVPSAVFDIHVVYVTTTEMWLDWKSPDGASEYVYHLVIESKHGSNHTSTYDKAITLQGLIPGTLYNITISPEVDHVWGDPNSTAQYTRPSNVSNIDVSTNTTAATLSWQNFDDASPTYSYCLLIEKAGNSSNATQVVTDIGITDATVTELIPGSSYTVEIFAQVGDGIKSLEPGRKSFCTDPASMASFDCEVVPKEPALVLKWTCPPGANAGFELEVSSGAWNNATHLESCSSENGTEYRTEVTYLNFSTSYNISITTVSCGKMAAPTRNTCTTGITDPPPPDGSPNITSVSHNSVKVKFSGFEASHGPIKAYAVILTTGEAGHPSADVLKYTYEDFKKGASDTYVTYLIRTEEKGRSQSLSEVLKYEIDVGNESTTLGYYNGKLEPLGSYRACVAGFTNITFHPQNKGLIDGAESYVSFSRYSDAVSLPQDPGVICGAVFGCIFGALVIVTVGGFIFWRKKRKDAKNNEVSFSQIKPKKSKLIRVENFEAYFKKQQADSNCGFAEEYEDLKLVGISQPKYAAELAENRGKNRYNNVLPYDISRVKLSVQTHSTDDYINANYMPGYHSKKDFIATQGPLPNTLKDFWRMVWEKNVYAIIMLTKCVEQGRTKCEEYWPSKQAQDYGDITVAMTSEIVLPEWTIRDFTVKNIQTSESHPLRQFHFTSWPDHGVPDTTDLLINFRYLVRDYMKQSPPESPILVHCSAGVGRTGTFIAIDRLIYQIENENTVDVYGIVYDLRMHRPLMVQTEDQYVFLNQCVLDIVRSQKDSKVDLIYQNTTAMTIYENLAPVTTFGKTNGYIA”, the “percentage of EdU-negative” value with MCF7 (setting [3]) is 23.2 ± 1.6%; with MCF7 (protein concentration 0.225 µM) it was 22.4 ± 0.63%; with hTERT-HMEC (setting [3]) it was 5.56 ± 1.9%; in the data set with hTERT-HMEC (protein concentration 0.225 µM) it was 5.79 ± 0.53%.
Regarding “MVPEVRVLSSLLGLALLWFPLDSHARARPDMFCLFHGKRYSPGESWHPYLEPQGLMYCLRCTCSEGAHVSCYRLHCPPVHCPQPVTEPQQCCPKCVEPHTPSGLRAPPKSCQHNGTMYQHGEIFSAHELFPSRLPNQCVLCSCTEGQIYCGLTTCPEPGCPAPLPLPDSCCQACKDEASEQSDEEDSVQSLHGVRHPQDPCSSDAGRKRGPGTPAPTGLSAPLSFIPRHFRPKGAGSTTVKIVLKEKHKKACVHGGKTYSHGEVWHPAFRAFGPLPCILCTCEDGRQDCQRVTCPTEYPCRHPEKVAGKCCKICPEDKADPGHSEISSTRCPKAPGRVLVHTSVSPSPDNLRRFALEHEASDLVEIYLWKLVKGIFHLTQIKKVRKQDFQKEAQHFRLLAGPHEGHWNVFLAQTLELKVTASPDKVTKT [Q6WN34]”, the “percentage of EdU-negative” value came out at 25.2 ± 1.1% in the data set on MCF7 (setting [4]), 27.3 ± 1.6% in the data set on MCF7 (protein concentration 0.155 µM), 5.6 ± 0.62% with hTERT-HMEC (setting [4]) and 7.92 ± 0.96% with hTERT-HMEC (protein concentration 0.155 µM).
As for Q9NQS3, the “percentage of EdU-negative” value worked out at 25.9 ± 3.8% with MCF7 (setting [3]), 26.1 ± 2.9% with MCF7 (protein concentration 0.225 µM), 4.83 ± 1.2% in the data set on hTERT-HMEC (setting [3]) and 4.728 ± 0.0098% in the data set with hTERT-HMEC (protein concentration 0.225 µM).
On to Q9HBE5, for which the “percentage of EdU-negative” value with MCF7 (setting [5]) was 24.6 ± 3%; in the data set with MCF7 (setting [6]), 26.38 ± 0.26%; in the data set on hTERT-HMEC (setting [5]), 4.85 ± 0.64%; in the data set on hTERT-HMEC (setting [6]), 5.88 ± 0.38%.
In the case of “MPAGRAARTCALLALCLLGAGAQDFGPTRFICTSVPVDADMCAASVAAGGAEELRSSVLQLRETVLQQKETILSQKETIRELTAKLGRCESQSTLDPGAGEARAGGGRKQPGSGKNTMGDLSRTPAAETLSQLGQTLQSLKTRLENLEQYSRLNSSSQTNSLKDLLQSKIDELERQVLSRVNTLEEGKGGPRNDTEERVKIETALTSLHQRISELEKGQKDNRPGDKFQLTFPLRTNYMYAKVKKSLPEMYAFTVCMWLKSSATPGVGTPFSYAVPGQANELVLIEWGNNPMEILINDKVAKLPFVINDGKWHHICVTWTTRDGVWEAYQDGTQGGSGENLAPYHPIKPQGVLVLGQEQDTLGGGFDATQAFVGELAHFNIWDRKLTPGEVYNLATCSTKALSGNVIAWAESHIEIYGGATKWTFEACRQIN”, the “percentage of EdU-negative” value in the data set on MCF7 (setting [7]) came to 26.9 ± 2.1%; with MCF7 (setting [8]), 24.2 ± 4.3%; in the data set with hTERT-HMEC (setting [7]), 5.12 ± 0.18%; in the data set on hTERT-HMEC (setting [8]), 4.43 ± 0.47%.
Turning to “MASVVLPSGSQCAAAAAAAAPPGLRLRLLLLLFSAAALIPTGDGQNLFTKDVTVIEGEVATISCQVNKSDDSVIQLLNPNRQTIYFRDFRPLKDSRFQLLNFSSSELKVSLTNVSISDEGRYFCQLYTDPPQESYTTITVLVPPRNLMIDIQKDTAVEGEEIEVNCTAMASKPATTIRWFKGNTELKGKSEVEEWSDMYTVTSQLMLKVHKEDDGVPVICQVEHPAVTGNLQTQRYLEVQYKPQVHIQMTYPLQGLTREGDALELTCEAIGKPQPVMVTWVRVDDEMPQHAVLSGPNLFINNLNKTDNGTYRCEASNIVGKAHSDYMLYVYDPPTTIPPPTTTTTTTTTTTTTILTIITDSRAGEEGSIRAVDHAVIGGVVAVVVFAMLCLLIILGRYFARHKGTYFTHEAKGADDAADADTAIINAEGGQNNSEEKKEYFI [Q9BY67]”, the “percentage of EdU-negative” value was found to be 24.5 ± 1.3% with MCF7 (setting [3]), 24.7 ± 1.1% in the data set with MCF7 (protein concentration 0.225 µM), 4.74 ± 0.29% with hTERT-HMEC (setting [3]) and 5.2 ± 0.79% with hTERT-HMEC (protein concentration 0.225 µM).

The values above are taken from the supplement of paper PMC11316812.
